These results are taken from patent US20090238886A1.

Assay [1] concerns the target Caco-2 cell membrane (P100) fractions. In words: ELISA on coated Caco-2 P100 fraction, anti-dansyl detection; assay 2, peptide at 50 µg/ml.
Assay [2] shares this target. In words: ELISA on coated Caco-2 P100 fraction, anti-dansyl detection; assay 5, peptide at 25 µg/ml. On the technique in general: ELISA stands for enzyme-linked immunosorbent assay.
The target is the same in assay [3]. In words: ELISA on coated Caco-2 P100 fraction, anti-dansyl detection; assay 8, peptide at 25 µg/ml.
For assay [4] the target is unchanged. In words: ELISA on coated Caco-2 P100 fraction, anti-dansyl detection; assay 6, peptide at 25 µg/ml.
For assay [5] the target is unchanged. In words: ELISA on coated Caco-2 P100 fraction, anti-dansyl detection; assay 3, peptide at 50 µg/ml.
Assay [6] shares this target. In words: ELISA on coated Caco-2 P100 fraction, anti-dansyl detection; assay 4, peptide at 25 µg/ml.
The target is the same in assay [7]. In words: ELISA on coated Caco-2 P100 fraction, anti-dansyl detection; assay 7, peptide at 25 µg/ml.
For assay [8] the target is unchanged. In words: ELISA on coated Caco-2 P100 fraction, anti-dansyl detection; assay 1, peptide at 20 µg/ml.

Where no end group is shown, it is not given here. The star is where a group is joined. Dansyl = CN(C)c1cccc2c(S(=O)(=O)*)cccc12

For the molecule K(Dansyl)SDHALGTNLRSDNAKEPGDYNCCGNGNSTGRKVFNRRRPSAIPT (cysteine pairing not given here) [ZElan021, full length HAX42], the binding to P100 relative to ZElan021 (arbitrary value 1.00) in assay [1] came out at 1; in assay [2], 1; in assay [3] it was 0.94; in assay [4], 1; in assay [5], 1; in assay [6] it was 1. Besides, the binding to P100 relative to ZElan021 (arbitrary value 1.00) was 1.14 in assay [7] and 1 in assay [8].
On to K(Dansyl)PGDYNCCGNGNSTG (cysteine pairing not given here) [ZElan091, HAX42 14 mer fragment], for which the binding to P100 relative to ZElan021 (arbitrary value 1.00) in assay [2] amounted to 1.37; in assay [4], 1.2; in assay [6] it was 2.02; in assay [7] it was 0.85.
